From publication doi:10.1101/2025.02.21.639368

Target: H1 NC99 HA trimer (full-length trimeric ectodomain of H1N1 A/New Caledonia/20/1999 hemagglutinin) (influenza A virus H1N1 A/New Caledonia/20/1999)
Assay: cryo-EM structure; HA NC99 and Fab mixed at a molar ratio of 1:1.5 (HA protomer:Fab), 5 min at room temperature; graphene grids, 0.01 mg/ml

Substance: H1 NC99 HA trimer (full-length trimeric ectodomain of H1N1 A/New Caledonia/20/1999 hemagglutinin) (natural protein)
- stoichiometry N: 3
